Measurements from patent US20260274985A1 (MYTHIC THERAPEUTICS, published 2026).
Numbering of substitutions follows the chain as printed.

What was measured:
[1] = biological target: T1, Human TROP2 Protein, His Tag (Acro Biosystems) (human, UniProt P09758 27-274); assay: BLI (Octet)
T1 construct: Bought protein; also called TACSTD2; not shown: His tag
T1 sequence: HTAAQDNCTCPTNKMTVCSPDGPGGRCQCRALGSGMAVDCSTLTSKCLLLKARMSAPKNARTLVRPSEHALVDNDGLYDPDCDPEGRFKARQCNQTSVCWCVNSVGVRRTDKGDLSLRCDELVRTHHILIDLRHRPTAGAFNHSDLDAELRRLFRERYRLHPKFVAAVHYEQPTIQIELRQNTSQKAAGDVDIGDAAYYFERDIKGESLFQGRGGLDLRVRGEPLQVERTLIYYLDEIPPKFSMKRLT

[2] = biological target: T1, Human TROP2 Protein, His Tag (Acro …); assay: BLI (Octet), antibody on anti-human Fc sensor, human TROP2-His in solution; legend: 3=No binding
[3] = biological target: T2, Human TROP2 Protein, His Tag (human, UniProt P09758 27-274); assay: BLI (Octet)
T2 construct: Bought protein; also called TACSTD2; not shown: His tag
T2 sequence (looked up): T1 sequence

[4] = biological target: T3, Human TROP2 Protein, His Tag (Acro Biosystems) (human, UniProt P09758 27-274); assay: BLI (Octet) [2/2]
T3 construct: not shown: His tag
T3 sequence (looked up): T1 sequence

B1: MYT12412 (hu7E6SVG variant, HCV substitutions at 33, 103) (antibody, V domains shown)
VH: QVQLQESGPGLVKPSETLSLTCTVSGGSISSYHVHWIRQPPGKGLEWIGVIWTSGVTDYNSALMGRVTISVDTSKNQFSLKLSSVTAADTAVYYCARDGDYDHYTMDYWGQGTLVTVSS
VL: DIVMTQSPDSLAVSLGERATINCRASKSVSTSGYSYMHWYQQKPGQPPKLLIYLASNLESGVPDRFSGSGSGTDFTLTISSLQAEDVAVYYCQHSRELPYTFGQGTKLEIK
binding result [1]: binds

B2: MYT12464 (hu7E6SVG variant, LCV substitutions at 60, 93, 94 (Ala at 94)) (antibody, V domains shown)
VH: B1 VH with H33G, H103R
VL: B1 VL with S60H, Q93H, H94A
notes: Full IgG in Expi293 supernatant
binding result [2]: no binding (tested: 50 nM)

B3: MYT12424 (hu7E6SVG variant, HCV substitutions at 56, 103) (antibody, V domains shown)
VH: B1 VH with H33G, V56H
VL: B1 VL
binding result [1]: binds

B4: MYT12417 (hu7E6SVG variant, HCV substitutions at 34, 103) (antibody, V domains shown)
VH: B1 VH with H33G, V34H
VL: B1 VL
binding result [1]: binds

B5: MYT12421 (hu7E6SVG variant, HCV substitutions at 51, 103) (antibody, V domains shown)
VH: B1 VH with H33G, I51H
VL: B1 VL
binding result [1]: binds

B6: MYT12416 (hu7E6SVG variant, HCV substitutions at 34, 102) (antibody, V domains shown)
VH: B1 VH with H33G, V34H, D102H, H103R
VL: B1 VL
binding result [1]: binds

B7: MYT12462 (hu7E6SVG variant, LCV substitutions at 59, 94, 101 (Ala at 94)) (antibody, V domains shown)
VH: B1 VH with H33G, H103R
VL: B1 VL with E59H, H94A, T101H
notes: as for B2
binding result [2]: no binding (tested: 50 nM)

B8: MYT12465 (hu7E6SVG variant, LCV substitutions at 60, 93, 97) (antibody, V domains shown)
VH: B1 VH with H33G, H103R
VL: B1 VL with S60H, Q93H, E97H
notes: as for B2
binding result [2]: no binding (tested: 50 nM)

B9: MYT12420 (hu7E6SVG variant, HCV substitutions at 51, 102) (antibody, V domains shown)
VH: B1 VH with H33G, I51H, D102H, H103R
VL: B1 VL
binding result [1]: binds

B10: MYT12425 (hu7E6SVG variant, HCV substitutions at 56, 106) (antibody, V domains shown)
VH: B1 VH with H33G, V56H, H103R, M106H
VL: B1 VL
binding result [1]: binds

B11: MYT12461 (hu7E6SVG variant, LCV substitutions at 59, 94, 97 (Ala at 94)) (antibody, V domains shown)
VH: B1 VH with H33G, H103R
VL: B1 VL with E59H, H94A, E97H
notes: as for B2
binding result [2]: no binding (tested: 50 nM)

B12: MYT11643 (antibody, V domains shown)
VH: QVQLVQSGAEVKKPGASVKVSCKASGYTFTTAHMQWVRQAPGQGLEWMGWINTHSGVPKYAEDFKGRVTISADTSTSTAYLQLSSLKSEDTAVYYCARSGFGSSYWYFDVWGQGTLVTVSS
VL: DIQMTQSPSSLSASVGDRVTITCKASQDVSTAVAWYQQKPGKAPKLLIYSASYRYTGVPSRFSGSGSGTDFTLTISSLQPEDFAVYYCQQHYITPLTFGQGTKLEIK
notes: IgG from supernatant; His at HCV position 33; also called datopotamab variant H1 08
binding result [3]: no binding (tested: 50 nM)

B13: MYT12351 (antibody, V domains shown)
VH: QVQLQQSGSELKKPGASVKVSCKASGYTFTNYGMNWVKQAPGQGLKWMGWINTYTGEPTYTDDFKGRFAFSLDTSVSTAYLQISSLKADDTAVYFCARGGFGSSYWYFDVWGQGSLVTVSS
VL: B12 VL with M4L, T20S, T31I, A51H, S60D, Y92H, Q100A, L104V
notes: sacituzumab VL 51, 92 -> H
binding result [4]: binds

B14: MYT12377 (antibody, V domains shown)
VH: B13 VH
VL: B12 VL with M4L, T20S, T31I, Y53H, S60D, Q89H, I93H, Q100A, L104V
notes: sacituzumab VL 53, 89, 93 -> H
binding result [4]: binds

B15: MYT12364 (antibody, V domains shown)
VH: B13 VH
VL: B12 VL with M4L, T20S, T31I, S60D, Q89H, I93H, Q100A, L104V
notes: sacituzumab VL 89, 93 -> H
binding result [4]: binds

B16: MYT12376 (antibody, V domains shown)
VH: B13 VH
VL: B12 VL with M4L, T20S, T31I, A51H, S60D, Q89H, I93H, Q100A, L104V
notes: sacituzumab VL 51, 89, 93 -> H
binding result [4]: binds

B17: MYT12352 (antibody, V domains shown)
VH: B13 VH
VL: B12 VL with M4L, T20S, T31I, A51H, S60D, I93H, Q100A, L104V
notes: sacituzumab VL 51, 93 -> H
binding result [4]: binds

B18: MYT12357 (antibody, V domains shown)
VH: B13 VH
VL: B12 VL with M4L, T20S, T31I, S52H, S60D, I93H, Q100A, L104V
notes: sacituzumab VL 52, 93 -> H
binding result [4]: binds

B19: MYT12374 (antibody, V domains shown)
VH: B13 VH
VL: B12 VL with M4L, T20S, T31I, A51H, Y53H, S60D, Q89H, Q100A, L104V
notes: sacituzumab VL 51, 53, 89 -> H
binding result [4]: binds

B20: MYT11672 (antibody, V domains shown)
VH: B12 VH with H33G, W106H
VL: B12 VL
notes: IgG from supernatant; also called datopotamab variant H3 10
binding result [3]: no binding (tested: 50 nM)

B21: MYT11663 (antibody, V domains shown)
VH: B12 VH with H33G, A97H
VL: B12 VL
notes: IgG from supernatant; His at HCV position 97; also called datopotamab variant H3 01
binding result [3]: no binding (tested: 50 nM)

B22: MYT12353 (antibody, V domains shown)
VH: B13 VH
VL: B12 VL with M4L, T20S, T31I, S52H, Y53H, S60D, Q100A, L104V
notes: sacituzumab VL 52, 53 -> H
binding result [4]: binds

B23: MYT11666 (antibody, V domains shown)
VH: B12 VH with H33G, G100H
VL: B12 VL
notes: IgG from supernatant; His at HCV position 100; also called datopotamab variant H3 04
binding result [3]: no binding (tested: 50 nM)

B24: MYT11668 (antibody, V domains shown)
VH: B12 VH with H33G, G102H
VL: B12 VL
notes: IgG from supernatant; also called datopotamab variant H3 06
binding result [3]: no binding (tested: 50 nM)

B25: MYT11665 (antibody, V domains shown)
VH: B12 VH with H33G, S99H
VL: B12 VL
notes: IgG from supernatant; His at HCV position 99; also called datopotamab variant H3 03
binding result [3]: no binding (tested: 50 nM)

B26: MYT11669 (antibody, V domains shown)
VH: B12 VH with H33G, S103H
VL: B12 VL
notes: IgG from supernatant; also called datopotamab variant H3 07
binding result [3]: no binding (tested: 50 nM)
